Data taken from US20260224621A1.

How the values were obtained:
[1] = molecular target: CD20 on Raji lymphocyte cells and primary CLL cells (human) (UniProt P11836); experiment: cell-based or functional assay
[2] = molecular target: CD19 on Raji cells, primary CLL cells and melanoma cell lines made to overexpress CD19 (UniProt P15391); experiment: cell-based or functional assay

Substance	specific killing of Raji cells by YTS cells expressing CD16 (ADCC), 3 hours [1] [%]	specific killing of Raji cells 24 hours after coculture, YTS CAR-CD19 cells (non-irradiated, 1000, 2500 or 3000 cGy) [2] [%]	specific killing of Raji cells by YTS cells expressing CAR-CD19 [2] [%]	specific killing of Raji cells, same day (2-3 hours), YTS CAR-CD19 cells irradiated with 1000 cGy [2] [%]	specific killing of Raji cells, same day (2-3 hours), YTS CAR-CD19 cells irradiated with 2500 cGy [2] [%]	specific killing of Raji cells, same day (2-3 hours), non-irradiated YTS CAR-CD19 cells [2] [%]
Rituximab (anti-CD20) (antibody)	> 60					
anti-CD19 CAR FMC63-28-3z (FMC63 scFV against CD19, CD28 costimulatory domain, CD3zeta signaling domain; Addgene #135991), expressed on YTS cells (from UniProt P10747 180-220; P20963 52-164)		> 55	> 50	25	23	18
